Source: the supplement of paper PMC10724198
± gives the standard deviation of the averaged measurements.

tested on: Saccharomyces cerevisiae; assay: protein stability index of tFT-peptide fusion (C-terminal peptide) (PSI (0-1 scale)); higher = more stable (slower turnover); conditions: genetic background: wild type; temperature: 30 C
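Further: PSI is a weighted mean of sequencing reads over stability bins, variants kept only with over 10 reads, mCherry proximal and sfGFP distal, peptide attached via GGGS linker.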

CCKMITYKEGRE and VNCFVYGKCCSG are within error of each other in protein stability index: 0.692 ± 0.06 for the first, 0.648 ± 0.072 for the second.

LLSRLWPASSSG and GATLWGMAWGAR are within error of each other in protein stability index: 0.672 ± 0.08 for the first, 0.682 ± 0.012 for the second.

Compared with AEFMRGVFKVSC, YQFGFLPAFPAC is higher in protein stability index: 0.6816 ± 0.0036 for the first, 0.7 ± 0.013 for the second.

AVGGVFVSSGGL and GGGGGFGVVRVG are within error of each other in protein stability index: 0.691 ± 0.013 for the first, 0.651 ± 0.032 for the second.

AKEERKVIRKMK and PIFQGTCPSTFV are within error of each other in protein stability index: 0.659 ± 0.063 for the first, 0.675 ± 0.02 for the second.

SRGRTRLVAPIV and DGCRCQSMSKIS are within error of each other in protein stability index: 0.66 ± 0.14 for the first, 0.553 ± 0.18 for the second.

Compared with PPPPPPRPPSSP, LCYLPLTLPPVL is lower in protein stability index: 0.694 ± 0.022 for the first, 0.582 ± 0.036 for the second.

Compared with RNYEKRSIIVCK, MVWCVSRGEGPV is higher in protein stability index: 0.497 ± 0.031 for the first, 0.762 ± 0.037 for the second.

RRMIKNVRRHKV and RAKRADPSGPPR are within error of each other in protein stability index: 0.661 ± 0.075 for the first, 0.724 ± 0.051 for the second.

Going from FSTTSFPPSFFP to NLITKWTCMRLF, the protein stability index falls from 0.711 ± 0.042 to 0.511 ± 0.014.

Compared with VGAGRGKGRGGG, RRASTVRVPTCW is higher in protein stability index: 0.617 ± 0.013 for the first, 0.701 ± 0.019 for the second.

Going from SPLDEYIDSVPA to PSPLPMYPPPTF, the protein stability index falls from 0.726 ± 0.017 to 0.693 ± 0.0083.

RNTIKMKENKRI and RVEITGVAVTRC are within error of each other in protein stability index: 0.643 ± 0.042 for the first, 0.642 ± 0.0082 for the second.

LVLSGSAFFYLG and PELLGVARDGFR are within error of each other in protein stability index: 0.666 ± 0.029 for the first, 0.65 ± 0.0097 for the second.

Compared with DVFLFPGVYFRM, GCPIYSIIQIHR is higher in protein stability index: 0.594 ± 0.012 for the first, 0.66818 ± 0.00019 for the second.

QEHLSFVATARY and APRRVAVAGETS are within error of each other in protein stability index: 0.73 ± 0.1 for the first, 0.707 ± 0.043 for the second.

KKKKKQKDTKHR and LLPPPPTPPLNL are within error of each other in protein stability index: 0.682 ± 0.018 for the first, 0.688 ± 0.033 for the second.

Going from NKIDAGTPEKHR to PPPPPPSPLTLP, the protein stability index rises from 0.626 ± 0.041 to 0.775 ± 0.086.

Going from IDRSHFAGVIVC to GQGGRAGRAADV, the protein stability index rises from 0.5735 ± 0.0029 to 0.6532 ± 0.001.

AGRRGVNGGGWG and TPLPPLPPHPPS are within error of each other in protein stability index: 0.686 ± 0.039 for the first, 0.727 ± 0.0087 for the second.

PCPRIPSSRRLA and PPAHIFHPPPAR are within error of each other in protein stability index: 0.574 ± 0.044 for the first, 0.699 ± 0.081 for the second.

ALYISLRELACP and AFWLPAAVPLIF are within error of each other in protein stability index: 0.548 ± 0.018 for the first, 0.584 ± 0.022 for the second.

HSLPPPCLHSTP and QLRYVGRSISRM are within error of each other in protein stability index: 0.683 ± 0.021 for the first, 0.659 ± 0.037 for the second.

Going from YLPLPPLTPPPR to PPIPPPPPLPPP, the protein stability index falls from 0.776 ± 0.036 to 0.621 ± 0.023.

KKNKHKEKIKKK and RGVREVGSAELV are within error of each other in protein stability index: 0.723 ± 0.069 for the first, 0.731 ± 0.022 for the second.

VGSGEWTRAMNR and LRSMSPPPHSLA are within error of each other in protein stability index: 0.673 ± 0.062 for the first, 0.688 ± 0.058 for the second.

Compared with GLQLTLINLPLE, GVWEGLQLGLIS is higher in protein stability index: 0.749 ± 0.029 for the first, 0.7826 ± 0.0032 for the second.

SPLLLLPAPPPP and LSELCFAPRSPE are within error of each other in protein stability index: 0.673 ± 0.014 for the first, 0.706 ± 0.046 for the second.

PLPPILPAPPPT and SGSFQGNVRVPC are within error of each other in protein stability index: 0.704 ± 0.028 for the first, 0.676 ± 0.017 for the second.

WGFVCWGCGGCS and SSPFSLPSPPLS are within error of each other in protein stability index: 0.746 ± 0.028 for the first, 0.676 ± 0.071 for the second.

ATSPTSGGIHTA and DYCARQRLLDQF are within error of each other in protein stability index: 0.662 ± 0.0092 for the first, 0.685 ± 0.11 for the second.

LWGSGVYGKNEC and CHRLGRTTGRIR are within error of each other in protein stability index: 0.703 ± 0.052 for the first, 0.692 ± 0.026 for the second.

QTTKPRDPPLHP and ANSGSRSSRVVG are within error of each other in protein stability index: 0.787 ± 0.13 for the first, 0.643 ± 0.1 for the second.

Compared with VSRCHLLDLSLV, PPRPAPTSFKRG is higher in protein stability index: 0.642 ± 0.024 for the first, 0.718 ± 0.037 for the second.

CGFCVCWSGVAL and PFSPHPGPPPPP are within error of each other in protein stability index: 0.72 ± 0.045 for the first, 0.7659 ± 0.002 for the second.

DARTLTECTCRG and PPPPSTRPSYSP are within error of each other in protein stability index: 0.648 ± 0.072 for the first, 0.756 ± 0.23 for the second.

SGSRWYYSLGRG and PPPRPSPLSSSL are within error of each other in protein stability index: 0.709 ± 0.043 for the first, 0.678 ± 0.094 for the second.

GYTSRGISFLRA and VHSGKGRQAKER are within error of each other in protein stability index: 0.698 ± 0.042 for the first, 0.715 ± 0.048 for the second.

Compared with YDLLLYGGATSP, GGRIITIWNRKM is lower in protein stability index: 0.757 ± 0.084 for the first, 0.578 ± 0.069 for the second.

Compared with RTSGRIASLPGP, YYVGLHSFSILQ is higher in protein stability index: 0.617 ± 0.031 for the first, 0.729 ± 0.076 for the second.

SNLYNSENVPVD and SLPPPAAPLPFP are within error of each other in protein stability index: 0.709 ± 0.041 for the first, 0.7346 ± 0.00096 for the second.

RDQMDNILQRFR and VRFVVVRRFRLP are within error of each other in protein stability index: 0.656 ± 0.077 for the first, 0.649 ± 0.0076 for the second.

EKVRICKWKGGI and QVDLVCKKVVGV are within error of each other in protein stability index: 0.616 ± 0.061 for the first, 0.655 ± 0.029 for the second.

First: PPPPPPRPLAPS
Second: WARLHLSGRYSL
The protein stability index of the first is lower: 0.679 ± 0.029 for the first, 0.747 ± 0.02 for the second.

LLTGVPRFSLDS and PSLSDPLAPPQG are within error of each other in protein stability index: 0.683 ± 0.014 for the first, 0.757 ± 0.089 for the second.

Compared with ERGRKGGAGARD, GVGWVWGGVWAG is higher in protein stability index: 0.6439 ± 0.0047 for the first, 0.744 ± 0.045 for the second.

LGWWGVWSWGRG and SCRLALPPSFLS are within error of each other in protein stability index: 0.655 ± 0.033 for the first, 0.706 ± 0.024 for the second.

LADSLILWRFPT and PSAPFPPVYPLH are within error of each other in protein stability index: 0.722 ± 0.087 for the first, 0.687 ± 0.017 for the second.

LLPRQSRYNAHF and RLPHPPARVFSI are within error of each other in protein stability index: 0.669 ± 0.075 for the first, 0.691 ± 0.011 for the second.

LSLLFLSLSLLR and WWEGSFRGGAVR are within error of each other in protein stability index: 0.61 ± 0.042 for the first, 0.592 ± 0.094 for the second.

In the case of TFRHLRPPLRSR, the protein stability index is reported as 0.649 ± 0.037.
